# Data reported in article doi:10.1101/2023.08.28.555145.
# Key:
# [1] = molecular target: UPP-G224L, recombinant (Arabidopsis thaliana); assay: SEC
# [2] = molecular target: Arabidopsis uracil phosphoribosyltransferase (UPP), wild type, recombinant (Arabidopsis thaliana); assay: SEC
Substance,stoichiometry N [1],stoichiometry N [2]
"UPP-G224L, recombinant (enzyme)",2,–
"Arabidopsis uracil phosphoribosyltransferase (UPP), wild type, recombinant (enzyme)",–,4
